Laboratory results as given in patent US20240092853A1 (Hoffmann-La Roche, published 2024).

B1: ExplResOnc.P177.0035 (IL2v (consensus all)) (ligand, not shown: large carriers)
chain: APASSSTKKTELQLQELLDDLQMILNGINNYKNPKLTRMLTAKFAMPKKATELKHLQCLEEELKPLEEVLNGAQSKNFHLDPRELIENINVIVLELKGSETTFMCEYADETATIVEFLNHWITFAQSIIETLE
notes: as m20
B2: ExplResOnc.P173.0239 (ligand, not shown: large carriers)
chain: APASSSTKKTELQLQELLLDLEEILNGINNYKNPKLTRMLTAKFAMPKKATELKHLQCLEEELKPLEEVLNGAQSKNFHLHPRELIENINVIVLELKGSETTFMCEYADETATIVEFLNHWITFAQSIIETLD
notes: as m20
B3: ExplResOnc.P174.0326 (ligand, not shown: large carriers)
chain: APASSSTKKTQLQLEELLDDLDQILNGINNYKNPKLTRMLTAKFAMPKKATELKHLQCLEEELKPLEEVLNGAQSKNFHLDPRELIENINVIVLELKGSETTFMCEYADETATIVEFLNHWITFAQSIIETLE
notes: as m20
B4: ExplResOnc.P175.0368 (ligand, not shown: large carriers)
chain: APASSSTKKTTEQLQELLDDLQMILNGINNYKNPKLTRMLTAKFAMPKKATELKHLQCLEEELKPLEEVLNGAQSKNFHLDPRELIENINVIVLELKGSETTFMCEYADETATIVEFLNEWITFAQSIIETLD
notes: as m20
B5: ExplResOnc.P173.0371 (ligand, not shown: large carriers)
chain: APASSSTKKTQLQLEELLDDLQQILNGINNYKNPKLTRMLTAKFAMPKKATELKHLQCLEEELKPLEEVLNGAQSKNFHLNPRELIDNINVIVLELKGSETTFMCEYADETATIVEFLNHWITFAQSIIETLD
notes: as m20
B6: ExplResOnc.P178.0145 (ligand, not shown: large carriers)
chain: APASSSTKKTEEQLENLLLDLQNILNGINNYKNPKLTRMLTAKFAMPKKATELKHLQCLEEELKPLEEVLNGAQSKNFHLEPRELISNINVIVLELKGSETTFMCEYADETATIVEFLNHWITFAQSIIETLE
notes: as m20
B7: ExplResOnc.P173.0255 (ligand, not shown: large carriers)
chain: APASSSTKKTEDHLQELLLDLEEILNGINNYKNPKLTRMLTAKFAMPKKATELKHLQCLEEELKPLEEVLNGAQSKNFHLNPRELIENINVIVLELKGSETTFMCEYADETATIVEFLNHWITFAQSIIETLE
notes: as m20
B8: ExplResOnc.P173.0079 (ligand, not shown: large carriers)
chain: APASSSTKKTQLQLEELLDDLEQILNGINNYKNPKLTRMLTAKFAMPKKATELKHLQCLEEELKPLEEVLNGAQSKNFHLDPRELIDNINVIVLELKGSETTFMCEYADETATIVEFLNHWITFAQSIIETLE
notes: soluble pH-dependent IL2v variant in bacterial supernatant, second library
B9: ExplResOnc.P174.0173 (ligand, not shown: large carriers)
chain: APASSSTKKTETQLQELLDDLHMILNGINNYKNPKLTRMLTAKFAMPKKATELKHLQCLEEELKPLEEVLNGAQSKNFHLDPRELIENINVIVLELKGSETTFMCEYADETATIVEFLNHWITFAQSIIETLE
notes: as m20
B10: ExplResOnc.P172.0344 (ligand, not shown: large carriers)
chain: APASSYTKKTQERLEQLLLDLEQILNGINNYKNPKLTRMLTAKFAMPKKATELKHLQCLEEELKPLEEVLNGAQSKNFHLNPRELIENINVIVLELKGSETTFMCEYADETATIVEFLNHWITFAQSIIETLD
notes: as m20
B11: ExplResOnc.P177.0036 (ligand, not shown: large carriers)
chain: APASSSTKKTELQLQELLDDLQMILNGINNYKNPKLTRMLTAKFAMPKKATELKHLQCLEEELKPLEEVLNGAQSKNFHLQPRELIENINVIVLELKGSETTFMCEYADETATIVEFLNHWITFAQSIIETLE
notes: as m20
B12: ExplResOnc.P174.0327 (ligand, not shown: large carriers)
chain: APASSSTKKTEEHLQNLLDDLEQILNGINNYKNPKLTRMLTAKFAMPKKATELKHLQCLEEELKPLEEVLNGAQSKNFHLEPRELIDNINVIVLDLKGSETTFMCEYADETATIVEFLNHWITFAQSIISTLE
notes: as m20
B13: ExplResOnc.P173.0182 (ligand, not shown: large carriers)
chain: APASSSTKKTELQLEELLLDLQEILNGINNYKNPKLTRMLTAKFAMPKKATELKHLQCLEEELKPLEEVLNGAQSKNFHLNPRELIENINVIVLELKGSETTFMCEYADETATIVEFLNHWITFAESIIETLE
notes: as m20
B14: ExplResOnc.P173.0259 (ligand, not shown: large carriers)
chain: APASSSTKKTELQLQELLDDLQMILNGINNYKNPKLTRMLTAKFAMPKKATELKHLQCLEEELKPLEEVLNGAQSKNFHLEPRDLIENINVIVLELKGSETTFMCEYADETATIVEFLNHWITFAQSIIETLE
notes: as m20
B15: ExplResOnc.P173.0087 (ligand, not shown: large carriers)
chain: APASSSTKKTEEQLEQLLDDLENILNGINNYKNPKLTRMLTAKFAMPKKATELKHLQCLEEELKPLEEVLNGAQSKNFHLEPRELIENINVIVLELKGSETTFMCEYADETATIVEFLNHWITFAQSIIETLE
notes: as m20
B16: ExplResOnc.P174.0040 (ligand, not shown: large carriers)
chain: APASSSTKKTETQLEQLLDDLQEILNGINNYKNPKLTRMLTAKFAMPKKATELKHLQCLEEELKPLEEVLNGAQSKNFHLDPRELIENINVIVLELKGSETTFMCEYADETATIVEFLNHWITFAQSIIETLE
notes: as m20
B17: ExplResOnc.P173.0156 (ligand, not shown: large carriers)
chain: APASSSTKKTESQLQNLLDDLQEILNGINNYKNPKLTRMLTAKFAMPKKATELKHLQCLEEELKPLEEVLNGAQSKNFHLEPRELIDNINVIVLELKGSETTFMCEYADETATIVEFLNHWITFAQSIIETLE
notes: as m20
B18: ExplResOnc.P177.0156 (ligand, not shown: large carriers)
chain: APASSSTKKTESQLEELLDDLQQILNGINNYKNPKLTRMLTAKFAMPKKATELKHLQCLEEELKPLEEVLNGAQSKNFHLDPRELIENINVIVLELKGSETTFMCEYADETATIVEFLNHWITFAQSIIETLE
notes: as m20
B19: ExplResOnc.P173.0127 (ligand, not shown: large carriers)
chain: APASSSTKKTELQLEELLDDLQEILNGINNYKNPKLTRMLTAKFAMPKKATELKHLQCLEEELKPLEEVLNGAQSKNFHLDPRDLIENINVIVLELKGSETTFMCEYADETATIVEFLNHWITFAESIISTLD
notes: as m20
B20: ExplResOnc.P175.0125 (ligand, not shown: large carriers)
chain: APASSSTKKTETQLEELLDDLEMILNGINNYKNPKLTRMLTAKFAMPKKATELKHLQCLEEELKPLEEVLNGAQSKNFHLDPRELIENINVIVLELKGSETTFMCEYADETATIVEFLNHWITFAQSIIETLD
notes: as m20
B21: ExplResOnc.P173.0364 (ligand, not shown: large carriers)
chain: APASSSTKKTQLQLEDLLLDLQNILNGINNYKNPKLTRMLTAKFAMPKKATELKHLQCLEEELKPLEEVLNGAQSKNFHLDPRELISNINVIVLELKGSETTFMCEYADETATIVEFLNHWITFAQSIIETLE
notes: as m20

biological target: T1, IL2R(bg)-Fc construct (human IL2R beta extracellular domain fused to Fc(knob) with avi tag, human IL2R gamma … (human, biotin on the C-terminal avi tag (co-expressed BirA))); assay: ELISA: biotinylated IL2R(bg)-Fc coated on neutravidin plates, clone in bacterial supernatant bound at pH 6, washing and 30 min incubation at pH 6.0, 6.5, 7.0 or 7.4, detection with anti-Flag/HRP; absorption at pH 6 set to 1
T1 construct: Knob-into-hole Fc heterodimer; also called IL2Rβγ; human heterodimeric IL-2 receptor beta/gamma
Protocol: FIG. 4. Binding analysis for the second set of selected pH-dependent IL2v variants to IL2Rfβγ at pH 6, pH 6.5, pH 7 and pH 7.4 by ELISA. Bacterial supernatants containing clonal pH-dependent IL2v variants were incubated with previously coated IL2Rfβγ. Prior to the detection by an anti-Flag/HRP secondary antibody, extensive washing for 30 minutes was performed at pH 6 or pH 7.4. The absorption at pH 6 was normalized to a value of 1 and the ratio of absorption levels was compared.
25 μl of 50 nM biotinylated antigen per well were coated at pH 6 on 384-well neutravidin plates and blocked with 2% BSA (50 mM BisTris 140 mM NaCL, 2% BSA, pH 6). Bacterial supernatants containing soluble variants of IL2v were re-buffered to pH 6, added to the plates and incubated for 1 h. Subsequently, several washing steps were performed at either pH 6 or pH 7.4 followed by an incubation step in washing buffer for 30 min at the respective pH. Binding of pH-dependent IL2v variants to the IL2R(bg)-Fc construct was detected via Flag tag by using an anti-Flag/HRP secondary antibody. Comparison of the signal between the two conditions (pH6 vs pH7.4) allowed identifying clones that bind in a pH-dependent manner. The phagemid expressing the parental IL2v construct was used as an internal control for a pH-independent signal. Clones with a binding ratio at pH 6 versus pH 7 that greater than 10 were short-listed and re-tested in order to confirm their pH-dependency.
In order to further characterize the selected pH-dependent IL2v variants, they were analyzed for their binding to IL2R(bg)-Fc under four different pH conditions including pH 6, pH 6.5, pH 7, and pH 7.4. Binding at pH 6 was normalized to 1 in order to better compare binding among all clones. […] In general, binding intensity at pH 7 and pH 7.4 was reduced between 10-100-fold

T1 sequence (chain, as listed by the source limits assumed, chain 1 of 2): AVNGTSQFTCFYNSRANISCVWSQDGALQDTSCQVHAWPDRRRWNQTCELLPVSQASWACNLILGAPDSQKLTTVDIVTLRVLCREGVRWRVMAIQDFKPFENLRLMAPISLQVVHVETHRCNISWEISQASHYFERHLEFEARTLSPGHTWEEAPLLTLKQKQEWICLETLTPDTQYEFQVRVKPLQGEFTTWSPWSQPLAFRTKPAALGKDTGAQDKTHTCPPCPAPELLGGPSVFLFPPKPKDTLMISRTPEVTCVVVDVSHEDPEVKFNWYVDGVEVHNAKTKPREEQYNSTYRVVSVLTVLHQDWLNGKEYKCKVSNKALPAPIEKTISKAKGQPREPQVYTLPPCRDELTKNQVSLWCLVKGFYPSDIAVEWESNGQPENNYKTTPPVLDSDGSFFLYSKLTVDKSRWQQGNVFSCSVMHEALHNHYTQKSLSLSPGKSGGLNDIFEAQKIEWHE
T1 sequence (chain, as listed by the source limits assumed, chain 2 of 2): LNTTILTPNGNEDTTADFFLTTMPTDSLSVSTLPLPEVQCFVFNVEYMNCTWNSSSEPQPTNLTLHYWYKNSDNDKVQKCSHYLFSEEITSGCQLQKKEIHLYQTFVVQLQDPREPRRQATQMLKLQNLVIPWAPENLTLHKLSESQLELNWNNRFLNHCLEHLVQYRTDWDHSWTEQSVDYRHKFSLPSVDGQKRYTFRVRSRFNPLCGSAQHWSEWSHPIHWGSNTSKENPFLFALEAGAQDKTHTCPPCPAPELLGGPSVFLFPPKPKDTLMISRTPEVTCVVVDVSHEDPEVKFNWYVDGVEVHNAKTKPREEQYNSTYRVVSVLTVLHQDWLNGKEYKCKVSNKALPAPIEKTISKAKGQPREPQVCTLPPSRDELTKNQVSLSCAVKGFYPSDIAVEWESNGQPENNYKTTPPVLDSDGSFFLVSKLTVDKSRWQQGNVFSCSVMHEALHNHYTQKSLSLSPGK

Binding result, binds:
B1
B2
B3
B4
B5
B6
B7
B8
B9
B10
B11
B12
B13
B14
B15
B16
B17
B18
B19
B20
B21
